# Test results taken from patent US20120093810A1 (EVEC, published 2012).
# No end group written: not given here. cellulose membrane = not defined here
# Key:
# [1] = target: T1, glycoprotein gB of human cytomegalovirus (HCMV) AD169 strain (human cytomegalovirus, AD169 strain, UniProt P06473 32-906); assay: cell-based or functional assay
# [2] = target: glycoprotein gB of HCMV laboratory strain Davis (human cytomegalovirus, Davis strain); assay: cell-based or functional assay
# [3] = target: T1, glycoprotein gB of human …; assay: cell-based or functional assay; remark: listed apart in the source
# [4] = target: glycoprotein gB of HCMV laboratory strain Towne (human cytomegalovirus, Towne strain, UniProt P13201 23-907); assay: cell-based or functional assay
# [5] = target: glycoprotein gB of clinically isolated HCMV strain MDU-1 (human cytomegalovirus, clinical isolate …, UniProt P08195); assay: cell-based or functional assay
# [6] = target: glycoprotein gB of clinically isolated HCMV strain T-137 (human cytomegalovirus, clinical isolate …); assay: cell-based or functional assay
# [7] = target: glycoprotein gB of HCMV laboratory strain Merlin (human cytomegalovirus, Merlin strain, UniProt F5HB53 25-907); assay: cell-based or functional assay
# [8] = target: T2, synthetic gB peptide, Peptide 8 in Table 5 (human cytomegalovirus, AD169 strain, reading uncertain); assay: peptide array (SPOTs), dot blot
# T2 construct: 12-mer of gB; also called peptide number 8
# T2 peptide: SPGRCYSRPVVI-{cellulose membrane}
# [9] = target: T3, synthetic gB peptide, Peptide 21 in Table 5 (human cytomegalovirus, AD169 strain, reading uncertain); assay: peptide array (SPOTs), dot blot
# T3 construct: 12-mer of gB; also called peptide number 21
# T3 peptide: GNSAYEYVDYLF-{cellulose membrane}
# [10] = target: T4, synthetic gB peptide, Peptide 7 in Table 5 (human cytomegalovirus, AD169 strain, reading uncertain); assay: peptide array (SPOTs), dot blot
# T4 construct: 12-mer of gB; also called peptide number 7
# T4 peptide: NVKESPGRCYSR-{cellulose membrane}
# [11] = target: T5, synthetic gB peptide, Peptide 3 in Table 5 (human cytomegalovirus, AD169 strain, reading uncertain); assay: peptide array (SPOTs), dot blot
# T5 construct: also called peptide number 3
# T5 peptide: SCVTINQTSVKV-{cellulose membrane}
# [12] = target: T6, synthetic gB peptide, Peptide 22 in Table 5 (human cytomegalovirus, AD169 strain, reading uncertain); assay: peptide array (SPOTs), dot blot
# T6 construct: 12-mer of gB; also called peptide number 22
# T6 peptide: YEYVDYLFKRMI-{cellulose membrane}
# [13] = target: T7, GST-fused HCMV-AD1 (AD1 region of HCMV glycoprotein gB) (human cytomegalovirus, AD169 strain, UniProt F5HB53 485-651); assay: ELISA on solid-phased AD1
# T7 construct: also called solid-phased AD1; AD1 antigen; not shown: glutathione S-transferase (GST) fusion partner
# [14] = target: T1, glycoprotein gB of human …; assay: cell-based or functional assay; remark: listed apart in the source
# T7 sequence (F5HB53 485-651): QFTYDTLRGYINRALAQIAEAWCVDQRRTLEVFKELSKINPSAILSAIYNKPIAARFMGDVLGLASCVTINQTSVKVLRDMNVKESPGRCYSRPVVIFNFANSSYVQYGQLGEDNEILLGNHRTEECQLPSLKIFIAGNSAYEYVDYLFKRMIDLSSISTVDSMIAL
# Sequence of glycoprotein gB of clinically isolated HCMV strain MDU-1 (P08195 102-630): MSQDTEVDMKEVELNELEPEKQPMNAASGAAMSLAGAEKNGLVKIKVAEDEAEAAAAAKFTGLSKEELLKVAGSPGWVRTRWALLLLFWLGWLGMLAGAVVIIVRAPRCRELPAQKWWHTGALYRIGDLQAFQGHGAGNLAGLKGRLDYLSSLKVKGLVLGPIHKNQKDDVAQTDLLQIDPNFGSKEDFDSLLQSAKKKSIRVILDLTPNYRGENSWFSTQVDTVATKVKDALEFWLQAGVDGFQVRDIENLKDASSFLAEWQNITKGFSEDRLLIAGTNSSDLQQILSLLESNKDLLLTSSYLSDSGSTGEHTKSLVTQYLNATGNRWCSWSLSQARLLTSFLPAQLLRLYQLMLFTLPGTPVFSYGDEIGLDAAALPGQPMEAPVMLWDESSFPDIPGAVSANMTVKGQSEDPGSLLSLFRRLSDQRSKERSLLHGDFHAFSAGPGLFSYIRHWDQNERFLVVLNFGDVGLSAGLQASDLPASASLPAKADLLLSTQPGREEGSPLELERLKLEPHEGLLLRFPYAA
# T1 sequence (P06473 32-906 limits assumed): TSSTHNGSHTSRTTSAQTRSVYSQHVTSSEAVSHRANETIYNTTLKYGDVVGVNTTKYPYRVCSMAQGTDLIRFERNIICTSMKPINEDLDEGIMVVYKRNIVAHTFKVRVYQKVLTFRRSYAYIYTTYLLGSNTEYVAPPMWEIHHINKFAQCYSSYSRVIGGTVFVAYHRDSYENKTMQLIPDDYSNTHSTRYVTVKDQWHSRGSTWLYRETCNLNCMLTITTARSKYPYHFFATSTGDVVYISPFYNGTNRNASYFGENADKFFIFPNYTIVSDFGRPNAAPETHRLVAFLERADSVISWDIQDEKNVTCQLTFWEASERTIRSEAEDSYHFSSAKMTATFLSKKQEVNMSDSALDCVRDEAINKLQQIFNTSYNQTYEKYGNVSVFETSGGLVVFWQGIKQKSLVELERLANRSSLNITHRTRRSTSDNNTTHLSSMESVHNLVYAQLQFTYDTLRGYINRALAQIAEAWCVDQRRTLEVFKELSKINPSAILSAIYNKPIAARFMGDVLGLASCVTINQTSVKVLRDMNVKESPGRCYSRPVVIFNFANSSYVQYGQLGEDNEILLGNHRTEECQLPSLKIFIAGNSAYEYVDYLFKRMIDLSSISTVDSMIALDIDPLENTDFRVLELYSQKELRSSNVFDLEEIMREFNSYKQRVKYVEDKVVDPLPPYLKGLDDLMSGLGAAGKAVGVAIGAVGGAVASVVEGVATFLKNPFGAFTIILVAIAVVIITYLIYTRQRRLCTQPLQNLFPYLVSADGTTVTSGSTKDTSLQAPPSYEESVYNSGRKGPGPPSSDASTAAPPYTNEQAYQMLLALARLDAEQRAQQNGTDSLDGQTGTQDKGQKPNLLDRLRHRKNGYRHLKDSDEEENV
# Sequence of glycoprotein gB of HCMV laboratory strain Towne (P13201 23-907 limits assumed): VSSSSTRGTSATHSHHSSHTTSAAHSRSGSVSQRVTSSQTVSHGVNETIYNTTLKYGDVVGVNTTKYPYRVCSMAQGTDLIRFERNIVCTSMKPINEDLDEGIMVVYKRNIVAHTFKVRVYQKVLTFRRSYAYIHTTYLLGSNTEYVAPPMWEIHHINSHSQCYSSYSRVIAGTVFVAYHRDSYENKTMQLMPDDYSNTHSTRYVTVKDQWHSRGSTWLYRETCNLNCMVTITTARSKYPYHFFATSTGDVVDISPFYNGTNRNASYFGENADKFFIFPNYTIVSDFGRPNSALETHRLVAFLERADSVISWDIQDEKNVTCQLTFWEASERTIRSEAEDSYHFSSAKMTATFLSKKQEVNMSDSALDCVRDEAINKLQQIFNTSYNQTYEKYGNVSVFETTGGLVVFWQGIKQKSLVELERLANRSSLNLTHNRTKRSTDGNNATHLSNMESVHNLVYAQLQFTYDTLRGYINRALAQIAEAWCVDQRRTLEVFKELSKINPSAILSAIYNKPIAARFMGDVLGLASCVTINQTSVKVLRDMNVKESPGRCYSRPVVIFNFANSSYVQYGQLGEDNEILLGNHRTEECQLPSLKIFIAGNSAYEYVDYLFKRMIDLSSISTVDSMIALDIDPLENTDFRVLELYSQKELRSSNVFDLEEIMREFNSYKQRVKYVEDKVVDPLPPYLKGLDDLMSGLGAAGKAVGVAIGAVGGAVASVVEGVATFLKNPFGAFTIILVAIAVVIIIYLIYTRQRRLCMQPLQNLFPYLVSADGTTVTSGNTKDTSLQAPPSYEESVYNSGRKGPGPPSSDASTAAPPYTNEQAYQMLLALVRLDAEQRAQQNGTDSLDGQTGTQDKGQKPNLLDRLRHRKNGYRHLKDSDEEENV
# Sequence of glycoprotein gB of HCMV laboratory strain Merlin (F5HB53 25-907 limits assumed): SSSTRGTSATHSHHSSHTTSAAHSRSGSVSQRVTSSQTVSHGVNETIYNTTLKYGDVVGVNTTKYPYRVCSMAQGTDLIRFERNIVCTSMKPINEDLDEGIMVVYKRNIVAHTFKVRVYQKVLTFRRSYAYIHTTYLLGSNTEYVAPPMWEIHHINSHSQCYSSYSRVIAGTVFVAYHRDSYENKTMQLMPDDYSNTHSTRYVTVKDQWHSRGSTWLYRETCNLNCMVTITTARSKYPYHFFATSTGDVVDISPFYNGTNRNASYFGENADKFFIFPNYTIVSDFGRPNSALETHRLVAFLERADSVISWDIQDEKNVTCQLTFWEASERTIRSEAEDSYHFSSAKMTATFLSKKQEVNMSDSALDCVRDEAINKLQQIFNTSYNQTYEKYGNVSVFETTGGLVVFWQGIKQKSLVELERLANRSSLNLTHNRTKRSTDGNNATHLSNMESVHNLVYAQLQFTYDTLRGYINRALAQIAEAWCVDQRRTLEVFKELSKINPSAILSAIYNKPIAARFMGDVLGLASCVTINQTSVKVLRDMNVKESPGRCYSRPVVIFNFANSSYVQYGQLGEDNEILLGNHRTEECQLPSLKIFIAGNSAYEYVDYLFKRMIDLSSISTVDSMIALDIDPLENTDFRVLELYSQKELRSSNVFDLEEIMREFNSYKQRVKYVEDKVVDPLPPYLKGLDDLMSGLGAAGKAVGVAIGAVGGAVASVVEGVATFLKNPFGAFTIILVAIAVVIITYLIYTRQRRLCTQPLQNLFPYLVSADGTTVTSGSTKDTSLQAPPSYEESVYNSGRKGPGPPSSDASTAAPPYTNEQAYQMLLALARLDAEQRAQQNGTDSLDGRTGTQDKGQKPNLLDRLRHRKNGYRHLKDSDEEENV
binder,measurement,setting,value
"anti-AD1 antibody EV2038 (antibody, human IgG1, lambda, V domains shown, complete human IgG1λ; also called EV2038 (original); anti-HCMV antibody (EV2038)) VH: QVQLQQWGAGLLKPSETLSLTCAVYGGSFSGYYWGWIRQPPGKGLEWIGEINHSGSANSNPSLKSRVTMSVDTSKNQFSLKVSSVTAADTAVYFCARVTRDLEWIPGDYYMDVWGKGTTVTVSS VL: QSVLTQPPSASGTPGQRVSISCSGSLSNIGTNYVYWYQQLPGTAPKLLIFKNNQRPSGVPDRFSGSKSGTSASLAISGLRSEDEADYYCAAWDDSLNGYVFGTGTKVTVLG","IC50 of neutralisation of HCMV AD169 infection of MRC-5 cells (IE1 immunostaining), with complement (Cp+)",[1],0.58 µg/mL
same,"IC50 of neutralisation of HCMV AD169 infection of MRC-5 cells (IE1 immunostaining), without complement (Cp-)",[1],0.57 µg/mL
same,"IC50 of plaque formation, HCMV Davis, fibroblast cell",[2],0.037 µg/mL
same,"IC50 of plaque formation, HCMV Davis, fibroblast cell (mol concentration)",[2],0.25 nM
same,"IC50 of plaque formation, HCMV AD169, fibroblast cell",[3],0.027 µg/mL
same,"IC50 of plaque formation, HCMV AD169, fibroblast cell (mol concentration)",[3],0.18 nM
same,"IC50 of plaque formation, HCMV Towne, fibroblast cell",[4],0.025 µg/mL
same,"IC50 of plaque formation, HCMV Towne, fibroblast cell (mol concentration)",[4],0.17 nM
same,"IC50 of plaque formation, clinical isolate MDU-1, epithelial cell",[5],0.04 µg/mL
same,"IC50 of plaque formation, clinical isolate MDU-1, fibroblast cell",[5],0.044 µg/mL
same,"IC50 of plaque formation, clinical isolate MDU-1, fibroblast cell (mol concentration)",[5],0.29 nM
same,"IC50 of plaque formation, clinical isolate T-137, fibroblast cell",[6],0.07 µg/mL
same,"IC50 of plaque formation, clinical isolate T-137, fibroblast cell (mol concentration)",[6],0.47 nM
same,"IC50 of plaque formation, HCMV Merlin, fibroblast cell",[7],0.012 µg/mL
same,"IC50 of plaque formation, HCMV Merlin, fibroblast cell (mol concentration)",[7],0.08 nM
same,binding result,[8],binds
same,binding result,[9],binds
same,binding result,[10],binds
same,binding result,[11],binds
same,binding result,[12],binds
"EV2038 CDR-H3 insertion variant G126_D127insE (antibody, V domains shown, original EV2038 L-chain) VH: QVQLQQWGAGLLKPSETLSLTCAVYGGSFSGYYWGWIRQPPGKGLEWIGEINHSGSANSNPSLKSRVTMSVDTSKNQFSLKVSSVTAADTAVYFCARVTRDLEWIPGEDYYMDVWGKGTTVTVSS VL: QSVLTQPPSASGTPGQRVSISCSGSLSNIGTNYVYWYQQLPGTAPKLLIFKNNQRPSGVPDRFSGSKSGTSASLAISGLRSEDEADYYCAAWDDSLNGYVFGTGTKVTVLG",binding result,[13],no binding
"EV2038 CDR-H3 deletion variant E122del (antibody, V domains shown, original EV2038 L-chain) VH: QVQLQQWGAGLLKPSETLSLTCAVYGGSFSGYYWGWIRQPPGKGLEWIGEINHSGSANSNPSLKSRVTMSVDTSKNQFSLKVSSVTAADTAVYFCARVTRDLWIPGDYYMDVWGKGTTVTVSS VL: QSVLTQPPSASGTPGQRVSISCSGSLSNIGTNYVYWYQQLPGTAPKLLIFKNNQRPSGVPDRFSGSKSGTSASLAISGLRSEDEADYYCAAWDDSLNGYVFGTGTKVTVLG",binding result,[13],no binding
"EV2038 CDR-H3 variant I124V (antibody, V domains shown) VH: QVQLQQWGAGLLKPSETLSLTCAVYGGSFSGYYWGWIRQPPGKGLEWIGEINHSGSANSNPSLKSRVTMSVDTSKNQFSLKVSSVTAADTAVYFCARVTRDLEWVPGDYYMDVWGKGTTVTVSS VL: QSVLTQPPSASGTPGQRVSISCSGSLSNIGTNYVYWYQQLPGTAPKLLIFKNNQRPSGVPDRFSGSKSGTSASLAISGLRSEDEADYYCAAWDDSLNGYVFGTGTKVTVLG",50% inhibition concentration (IC50) of HCMV infection (immunostaining method of Abai et al.),[14],0.45 µg/mL
"EV2038 CDR-H3 variant V132K (antibody, V domains shown) VH: QVQLQQWGAGLLKPSETLSLTCAVYGGSFSGYYWGWIRQPPGKGLEWIGEINHSGSANSNPSLKSRVTMSVDTSKNQFSLKVSSVTAADTAVYFCARVTRDLEWIPGDYYMDKWGKGTTVTVSS VL: QSVLTQPPSASGTPGQRVSISCSGSLSNIGTNYVYWYQQLPGTAPKLLIFKNNQRPSGVPDRFSGSKSGTSASLAISGLRSEDEADYYCAAWDDSLNGYVFGTGTKVTVLG",50% inhibition concentration (IC50) of HCMV infection (immunostaining method of Abai et al.),[14],1.2 µg/mL
"EV2038 CDR-H3 variant I124D (antibody, V domains shown, original EV2038 L-chain) VH: QVQLQQWGAGLLKPSETLSLTCAVYGGSFSGYYWGWIRQPPGKGLEWIGEINHSGSANSNPSLKSRVTMSVDTSKNQFSLKVSSVTAADTAVYFCARVTRDLEWDPGDYYMDVWGKGTTVTVSS VL: QSVLTQPPSASGTPGQRVSISCSGSLSNIGTNYVYWYQQLPGTAPKLLIFKNNQRPSGVPDRFSGSKSGTSASLAISGLRSEDEADYYCAAWDDSLNGYVFGTGTKVTVLG",binding result,[13],no binding
